Tests used:
[1] = target: T1, Heat-denatured BSA (bovine serum albumin autoclaved for 15 minutes) (bovine, UniProt P02769 25-607); test: turbidity (OD550), heat-denatured BSA mixed with rising concentration of the Fibrinogen α peptide
T1 construct: also called heat-denatured BSA solution; reagent for detection

[2] = target: T1, Heat-denatured BSA (bovine serum …); test: turbidity (OD550), Hill plot analysis
Description: (§1) The Kd value and Hill coefficient were calculated for the respective samples.

[3] = target: T1, Heat-denatured BSA (bovine serum …); test: turbidity (OD550), heat-denatured BSA mixed with rising concentration of the Factor XIII peptide
[4] = target: T1, Heat-denatured BSA (bovine serum …); test: turbidity (OD550), heat-denatured BSA mixed with rising concentration of the kininogen fragment
Description: In the preparation, the sample was mixed so as to obtain a final concentration of the respective peptides in the mixed solutions of 0 to 80 μM.
as §1

[5] = target: T1, Heat-denatured BSA (bovine serum …); test: turbidity (OD550), heat-denatured BSA mixed with rising concentration of α-endorphin
Description: In the preparation, the sample was mixed so as to obtain a final concentration of the respective peptides in the mixed solutions of 0 to 150 μM.

[6] = target: T1, Heat-denatured BSA (bovine serum …); test: turbidity (OD550), heat-denatured BSA mixed with rising concentration of C3f
[7] = target: T2, BSA heat-denatured for 60 minutes (bovine, UniProt P02769 25-607); test: turbidity (OD550), BSA heat-denatured for 60 min mixed with rising concentration of the partial ACTH peptide
T2 construct: Autoclaved at 110 C for 60 min; also called heat denaturation period 60 min
Description: (§2) The Kd value and Hill coefficient of BSA at respective heat denaturation periods were calculated.

[8] = target: T1, Heat-denatured BSA (bovine serum …); test: turbidity (OD550), Hill plot analysis; table row for nucleic acid 'No'
Description: (§3) A comparative mixed solution was prepared by adding to the mixed solution a salmon sperm DNA (trade name: Sonicated Salmon Sperm DNA, BioDynamics Laboratory Inc.) as nucleic acid (final concentration of nucleic acid: 10 μM).
(§4) The Kd value and Hill coefficient were calculated for the mixed solutions.

[9] = target: T1, Heat-denatured BSA (bovine serum …); test: turbidity (OD550), heat-denatured BSA mixed with rising concentration of the partial ACTH peptide, without nucleic acid
Description: as §3, §4

Non-denatured BSA [10] = target: T3, Non-denatured BSA (bovine, UniProt P02769 25-607); test: turbidity (OD550) against peptide concentration, Hill plot analysis
T3 construct: BSA solution that was not heated; also called non-denatured BSA solution; BSA heat-denatured for 0 min
Description: (§5) In this preparation, the sample was mixed so as to obtain a final concentration of the partial ACTH peptide in the mixed solution of 0 to 150 μM.
(§6) The thus-prepared mixed solutions were measured for absorbance at the wavelength of 550 nm (OD550) in a spectrophotometer UV-2500PC (Shimadzu Corporation).

[11] = target: T1, Heat-denatured BSA (bovine serum …); test: as above
Description: as §5, §6

[12] = target: T1, Heat-denatured BSA (bovine serum …); test: turbidity (OD550), Hill plot analysis; heat denaturation period 15 min
Description: as §2

[13] = target: T1, Heat-denatured BSA (bovine serum …); test: turbidity (OD550), Hill plot analysis; table row for nucleic acid 'Yes' (salmon sperm DNA, 10 µM); with nucleic acid (Yes)
Description: as §3, §4

[14] = target: T4, BSA heat-denatured for 120 minutes (bovine, UniProt P02769 25-607); test: turbidity (OD550), BSA heat-denatured for 120 min mixed with rising concentration of the partial ACTH peptide
T4 construct: Autoclaved at 110 C for 120 min; also called heat denaturation period 120 min
Description: as §2

[15] = target: T1, Heat-denatured BSA (bovine serum …); test: turbidity (OD550), Hill fit with competitive inhibition term; serum at 100-fold dilution
Description: (§7) In the preparation, the serum-based sample was mixed so as to adjust a final concentration of the partial ACTH peptide of to 0 to 80 μM and adjust a final concentration of serum of to an equivalent to 100-fold dilution in the mixed solution. For a control, a mixed solution was also prepared without serum (hereinafter referred to as “control solution”).
(§8) The thus-prepared mixed solutions were measured for absorbance at the wavelength of 550 nm (OD550) with a spectrophotometer UV-2500PC (Shimadzu Corporation).

[16] = target: T1, Heat-denatured BSA (bovine serum …); test: turbidity (OD550), Hill plot analysis; control solution without serum
Description: as §7, §8

[17] = target: T5, Heat-denatured human serum albumin (HSA) (human, UniProt P02768 25-609); test: turbidity (OD550), heat-denatured HSA (0.2 w/v %) mixed with rising concentration of the partial ACTH peptide
T5 construct: 1.0 w/v % HSA in ultrapure water, autoclaved at 115 C for 15 min; also called Heat-denatured HSA; denatured HSA
Description: (§9) In the preparation, the sample was mixed so as to obtain a final concentration of the partial ACTH peptide in the mixed solution of 0 to 80 μM.
as §8

[18] = target: T1, Heat-denatured BSA (bovine serum …); test: turbidity (OD550) of mixtures of heat-denatured BSA (0.2 w/v %) with rising concentration of the partial ACTH peptide
Description: as §5, §6

[19] = target: T6, BSA heat-denatured for 5 minutes (bovine, UniProt P02769 25-607); test: turbidity (OD550), Hill plot analysis; heat denaturation period 5 min
T6 construct: Autoclaved at 110 C for 5 min; also called heat denaturation period 5 min
Description: as §2

[20] = target: T1, Heat-denatured BSA (bovine serum …); test: turbidity (OD550), heat-denatured BSA mixed with rising peptide concentration; fitted curve of FIG. 1 superimposed
[21] = target: T4, BSA heat-denatured for 120 minutes; test: turbidity (OD550), Hill plot analysis; heat denaturation period 120 min
Description: as §2

[22] = target: T2, BSA heat-denatured for 60 minutes; test: turbidity (OD550), Hill plot analysis; heat denaturation period 60 min
Description: as §2

[23] = target: T1, Heat-denatured BSA (bovine serum …); test: turbidity (OD550), heat-denatured BSA mixed with rising concentration of the partial ACTH peptide, with salmon sperm DNA (10 µM)
Description: as §3, §4

[24] = target: T1, Heat-denatured BSA (bovine serum …); test: turbidity (OD550), BSA heat-denatured for 15 min mixed with rising concentration of the partial ACTH peptide
Description: as §2

Non-denatured BSA [25] = target: T3, Non-denatured BSA; test: turbidity (OD550), Hill plot analysis; heat denaturation period 0 min
Description: as §2

[26] = target: T7, Heat-denatured ovoalbumin (OA) (UniProt P01012 2-386); test: turbidity (OD550), Hill plot analysis
T7 construct: 1.0 w/v % OA, pH adjusted to 5 to 7 with sodium hydroxide, autoclaved at 115 C for 15 min; also called Heat-denatured OA; denatured OA
T7 sequence (looked up): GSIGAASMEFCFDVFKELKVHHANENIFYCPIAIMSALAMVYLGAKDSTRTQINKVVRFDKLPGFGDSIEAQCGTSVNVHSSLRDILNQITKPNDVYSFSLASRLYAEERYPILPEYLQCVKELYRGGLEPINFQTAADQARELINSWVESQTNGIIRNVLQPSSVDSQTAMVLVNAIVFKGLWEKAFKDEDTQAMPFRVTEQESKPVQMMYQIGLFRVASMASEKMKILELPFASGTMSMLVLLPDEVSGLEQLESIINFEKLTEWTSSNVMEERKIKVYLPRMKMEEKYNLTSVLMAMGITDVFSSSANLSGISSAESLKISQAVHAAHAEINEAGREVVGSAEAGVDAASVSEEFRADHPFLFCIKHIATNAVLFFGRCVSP
Description: as §9, §8

[27] = target: T6, BSA heat-denatured for 5 minutes; test: turbidity (OD550), BSA heat-denatured for 5 min mixed with rising concentration of the partial ACTH peptide
Description: as §2

T1 sequence (P02769 25-607 limits assumed): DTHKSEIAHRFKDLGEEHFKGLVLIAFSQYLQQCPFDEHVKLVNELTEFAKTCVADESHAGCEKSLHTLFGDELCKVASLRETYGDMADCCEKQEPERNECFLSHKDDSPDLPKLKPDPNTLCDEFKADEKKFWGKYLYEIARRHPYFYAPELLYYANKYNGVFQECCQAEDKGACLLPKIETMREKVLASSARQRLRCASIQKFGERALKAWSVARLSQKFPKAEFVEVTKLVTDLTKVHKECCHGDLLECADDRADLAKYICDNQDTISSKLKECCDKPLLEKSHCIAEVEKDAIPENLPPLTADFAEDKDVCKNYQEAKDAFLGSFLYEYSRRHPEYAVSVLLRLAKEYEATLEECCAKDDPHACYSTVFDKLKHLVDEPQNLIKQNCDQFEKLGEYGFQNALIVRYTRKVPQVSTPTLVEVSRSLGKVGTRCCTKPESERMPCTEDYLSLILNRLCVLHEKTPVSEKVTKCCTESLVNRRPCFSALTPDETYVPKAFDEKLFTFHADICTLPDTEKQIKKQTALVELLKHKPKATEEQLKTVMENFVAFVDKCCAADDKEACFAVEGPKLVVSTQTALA
T3 sequence (P02769 25-607 limits assumed): as above
T4 sequence (P02769 25-607 limits assumed): as above
T6 sequence (P02769 25-607 limits assumed): as above
T2 sequence (P02769 25-607 limits assumed): as above

Question: Does DEAGSEADHEGTHSTKRGHAKSRPV [Fibrinogen α (neutral peptide)] bind [1]?
Answer: no binding (tested: 80 µM)

B1: fragment of ITIH4 (positions 611 to 642) (peptide)
peptide: GESRNRNVHSGSTFFKYYLQGAKIPKPEASFS
notes: also called ITIH4 (611-642); ITIH4 fragment
Question: How did the Kd [2] turn out when B1 was run?
Answer: 70 µM

Question: Does AVPPNNSNAAEDDLPTVELQGVVPR [Factor XIII (acidic peptide)] bind [3]?
Answer: no binding (tested: 80 µM)

B2: fragment of kininogen (positions 439 to 457) (peptide)
peptide: HNLGHGHKHERDQGHGHQR
notes: also called Kininogen (439-457); kininogen fragment
Question: Which Kd [2] does the source give for B2 here?
Answer: 45 µM

Question: What about the “EC50 (read off the curve)” value [4] of the same binder?
Answer: ~40 µM

B3: α-endorphin (peptide)
peptide: YGGFMTSEKSQTPLVT
notes: Neutral comparative peptide, Peptide Institute, Inc; also called neutral peptide, α-endorphin
Question: Does B3 bind [5]?
Answer: no binding (tested: 150 µM)

Question: Does HWESASLL (Acidic peptide from Biologica Co) [C3f (acidic peptide)] bind [6]?
Answer: no binding (tested: 80 µM)

Question: For SYSMEHFRWGKPVGKKRRPVKVYP (also called basic peptide of interest) [partial ACTH peptide consisting of the amino acids of positions 1 to 24 of ACTH], which “EC50 (read off the curve)” value [7] is on record?
Answer: ~30 µM

Question: What about the Kd [8] of the same binder?
Answer: 40 µM

Question: What about the “EC50 (read off the curve)” value [9] of the same binder?
Answer: ~30 µM

Question: What about the Kd (Non-denatured BSA [10]) of the same binder?
Answer: 290 µM

Question: And the Kd [11]?
Answer: 30 µM

Question: And the Kd [12]?
Answer: 30 µM

Question: And the Kd [13]?
Answer: 30 µM

Question: What about the “EC50 (read off the curve)” value [14] of the same binder?
Answer: ~30 µM

Question: What about the Kd [15] of the same binder?
Answer: 29 µM

Question: And the Kd [16]?
Answer: 25 µM

Question: And the “EC50 (read off the curve)” value [17]?
Answer: 40 to 50 µM

Question: And the “EC50 (read off the curve)” value [18]?
Answer: ~30 µM

Question: And the Kd [19]?
Answer: 33 µM

Question: What about the “EC50 (read off the curve)” value [20] of the same binder?
Answer: 20 to 30 µM

Question: And the Kd [21]?
Answer: 33 µM

Question: What about the Kd [22] of the same binder?
Answer: 28 µM

Question: And the “EC50 (read off the curve)” value [23]?
Answer: ~40 µM

Question: What about the “EC50 (read off the curve)” value [24] of the same binder?
Answer: ~30 µM

Question: What about the Kd (Non-denatured BSA [25]) of the same binder?
Answer: 290 µM

Question: What about the Kd [26] of the same binder?
Answer: 67 µM

Question: What about the “EC50 (read off the curve)” value [27] of the same binder?
Answer: ~30 µM

Reference: US20170089928A1 (SYSMEX, published 2017)
